According to article PMC4787769:

Biological target: mLANA DBD (Murine gammaherpesvirus 68 (MHV-68), UniProt O41974 124-314)
Assay: SAXS; linear octamer model, no DNA bending
Settings: protein: recombinant; tags: GST-6xHis tag (pET49b) removed by 3C protease; chain copies: 2

B1: mLBS1-2 (dsDNA)
DNA 1: GCCATGCGCCCGCGCCTGGGGCGCCACGCGGCGCGCCCTGGAGACCCGGG
DNA 2: CCCGGGTCTCCAGGGCGCGCCGCGTGGCGCCCCAGGCGCGGGCGCATGGC
B1: binds.
